This is an account of results in article PMC4515589, “In vitro analysis of phosphorothioate modification of DNA reveals substrate recognition by a multiprotein complex” (Scientific Reports, 2015).

B1: DptE (S. enterica serovar Cerro 87) (natural protein)
chain: MLPNRMVLSRQTEDQLKKLKGYTGITPNVAARLAFFRSVESEFRYSPERDSKKLDGSLVLDKITWLGETLQATELVLKMLYPQLEQKILIKAWAAHVDDGIAALRNYRSLKDFSKNI
notes: DptE (13 kDa), phosphorothioate-modifying protein of Salmonella enterica serovar Cerro 87; expressed from the coding region of the dptC/D/E operon; also called PT-modifying protein E; source: E. coli BL21 (DE3), co-overexpressed with His-DptC and DptD from pET-28a(+); in lysate, then co-purified with His-DptC (nickel column, gel filtration)
B2: DptD (S. enterica serovar Cerro 87) (enzyme)
chain: MRANRLCLSMRKMNVLIKQLVLHNFRVFCGTHTIDLAPRKRPHEVNPRPIVLFGGLNGAGKTSILSAIRLALYGRLAFGPAMQQQEYVEQLGALVHNGTYTAERPDEAAVELTFTYNQNGHETEFTVTRSWKKGKKDRLSLQQDGQPRSELSYDQCQGFLNELIPHGVADLFFFDGEKIAELAEDESGNILRTAVRRLLGLDLIARLQNDLMIFIKRQQTAQLGGSQQQQVEALEAKIKTLAGQAEKLLEEADFVNSRIEFLSQDIIRHEGLLNAQGGAFAQTKAQEKQKVETLLKEKERLEKALRQECDGSLPYALAPNTLSRLLEKIANEAQIKQAKIFETELNQFLTQLKNDIAFRSSSESSTRAIATEAITNNLDAYMATKPKGDLLFDISEREAGMLQQSIEQDSKKAWQRFDMYRHQLADIEQQLEQAAANIARAPEDEQLMDLFAALRDLDHKREKQRQKYRSLLEEAKRTKQQQLDCVRQVQKAHDITRSQHGLSSAFKNAQETINLLDYYSNVLTQARVKKLSANFEIAYHKLARKEDLQLNAHINPQTFDVELVDEKGSVINRKLLSAGEKQIYAIAILEALAKTSGRDFPVIIDTPLGRLDSQHRDKLINHYFPEASHQVVLLSTDTEVDERYFVDRLRDDISHAYEIVFNAHTKSSALKPGYFWELTKEAV
notes: DptD (77 kDa), phosphorothioate-modifying protein of Salmonella enterica serovar Cerro 87; expressed from the coding region of the dptC/D/E operon; also called PT-modifying protein D; source: E. coli BL21 (DE3), co-overexpressed with His-DptC and DptE from pET-28a(+); in lysate, then co-purified with His-DptC (nickel column, gel filtration)
B3: DptC with N-terminal His-tag (S. enterica serovar Cerro 87) (enzyme)
chain: MSKLVQAYDLAEYEDFINQEQFAGRPLAEYVAEVQRIYCADKRPWVIGYSGGKDSSAVITLVYLALLGLPPEMRSKDVFIVSSDTLVETPVVVDLIKKTMLQIEAGAKRNGLPITQHAVTPKTNETFWVNLLGKGYPAPTRSFRWCTERMKINPVSDFIKDKVSQFDEVIVVLGSRSSESASRAQVIAKHKIDGSRLARHTTLANAFIYTPIDTWDVEDVWKLLRGAFRYAPEDIDEWESPWGGNNRPLWTLYMDSSAQGECPLVIDESTPSCGNSRFGCWTCTVVTKDKAMESLIKNGEEWMSPLLKYRDLLAFTTDPANKDTYRNYKRRTGKVSYQYAKDGEDRSAERKHVPGPYWLKYRQQWLKDLLEIERDLNAQGHTITLITQPELHAIRQEWLKDPNEPDWHDTLPEIYREVYQQDLNWVVDDQSRFDASDADLLAQITQGFDVVPEMVMKLIELETSMEGLSRRQGIFDKLGTILKQDWGSLEEIQQQQATLQKRNDRDIHQDEVEKLEAELQTLQRRIIDAGESSVLIDEENERAH
notes: DptC, phosphorothioate-modifying protein of Salmonella enterica serovar Cerro 87; coding region of the dptC/D/E operon amplified from genomic DNA; the upstream primer begins at the ATG of dptC; also called His-Tag labeled DptC; labelled DptC; source: E. coli BL21 (DE3), co-overexpressed with DptD and DptE from pET-28a(+); in lysate, then purified (nickel HiTrap chelating column, Superdex gel …)

This data set concerns the molecule itself. Briefly: SEC + other: densitometry of SDS-PAGE bands; ~600 kDa gel filtration fraction of the DptC/D/E complex resolved on Coomassie-stained SDS-PAGE, bands quantified by ImageJ and normalised by molecular mass; copy number worked out from the ~600 kDa mass and the equimolar amounts.
Take B1: the stoichiometry N (usually the number of molecules, sites or subunits per partner or assembly) was 4.
For the protein B2, the “stoichiometry N” value is 4.
Next, B3: 4.
